Reference: patent publication US20030186258

Target: fusion protein PNP20aa-hGH (UniProt P01241)
Sequence (P01241 27-217): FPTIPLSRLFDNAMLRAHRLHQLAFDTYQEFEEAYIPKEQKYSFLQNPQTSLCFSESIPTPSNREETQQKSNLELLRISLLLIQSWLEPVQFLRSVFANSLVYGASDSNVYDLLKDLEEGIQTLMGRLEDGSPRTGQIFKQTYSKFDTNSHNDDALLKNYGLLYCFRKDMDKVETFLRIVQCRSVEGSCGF

## ss-Kex1 protease immobilised on Eupergit C250L resin
  digestion of the fused protein (SDS-PAGE), 15 hours: almost complete: digestion is obtained after 15 hours
